Substitutions are numbered along the chain they refer to.
Columns and labels:
[1] = biological target: BsoBI pseudorevertant 6c E46V/D61E/S94T/D246A (UniProt P70985); assay: cleavage_in_vitro; conditions: pUC19, 65 C
BsoBI D246E D246E = biological target: T1, BsoBI D246E D246E (UniProt P70985); assay: cleavage_in_vitro; conditions: lambda or pUC19; purified D246E also lacked measurable cleavage
T1 sequence: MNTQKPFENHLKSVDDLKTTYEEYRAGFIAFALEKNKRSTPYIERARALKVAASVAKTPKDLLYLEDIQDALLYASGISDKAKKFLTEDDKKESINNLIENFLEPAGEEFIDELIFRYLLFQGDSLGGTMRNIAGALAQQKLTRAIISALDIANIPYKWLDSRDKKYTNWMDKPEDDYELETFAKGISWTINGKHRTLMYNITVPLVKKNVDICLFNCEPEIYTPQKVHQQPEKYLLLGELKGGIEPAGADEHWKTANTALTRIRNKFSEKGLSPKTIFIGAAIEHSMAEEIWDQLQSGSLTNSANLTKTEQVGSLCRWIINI

BsoBI D246Q D246Q = biological target: T2, BsoBI D246Q D246Q (UniProt P70985); assay: cleavage_in_vitro; conditions: cell extract
T2 sequence: T1 sequence with E246Q

BsoBI D246N D246N = biological target: T3, BsoBI D246N D246N (UniProt P70985); assay: cleavage_in_vitro; conditions: cell extract
T3 sequence: T1 sequence with E246N

BsoBI pseudorevertant 8d = biological target: T4, BsoBI pseudorevertant 8d (UniProt P70985 P70985:1-323, N36K/D246A); assay: cleavage_in_vitro; pUC19, 65 C; conditions: tags: partially purified; chain copies: 2 inferred
T4 sequence: T1 sequence with N36K, E246A

[2] = biological target: T5, BsoBI pseudorevertant 29e (UniProt P70985 P70985:1-323, D246A/C317W); assay: cleavage_in_vitro; pUC19, 65 C; conditions: chain copies: 2 inferred
T5 sequence: T1 sequence with E246A, C317W

[3] = biological target: T6, BsoBI pseudorevertant 9c (same as 11c) (UniProt P70985 P70985:1-323, R38S/L62I/D112Y/N169T/L238F/D246A/A248S); assay: cleavage_in_vitro; pUC19, 65 C; protein temperature sensitive; conditions: chain copies: 2 inferred
T6 sequence: T1 sequence with R38S, L62I, D112Y, N169T, L238F, E246A, A248S

[4] = biological target: T7, BsoBI restriction endonuclease (UniProt P70985 P70985:1-323); assay: cleavage_in_vitro; pUC19, NEB buffer 2, 65 C; conditions: tags: untagged, expressed from pRRS-bsoBIR in E. coli ER2683; chain copies: 2 inferred
T7 sequence: T1 sequence with E246D

PvuII K93R/V50A = biological target: T8, PvuII K93R/V50A (UniProt P23657 P23657:1-157, K93R/V50A); assay: cleavage_in_vitro; NEB buffer 2, 37 C, 1.5 h; conditions: tags: His-tag; chain copies: 2 inferred
T8 sequence: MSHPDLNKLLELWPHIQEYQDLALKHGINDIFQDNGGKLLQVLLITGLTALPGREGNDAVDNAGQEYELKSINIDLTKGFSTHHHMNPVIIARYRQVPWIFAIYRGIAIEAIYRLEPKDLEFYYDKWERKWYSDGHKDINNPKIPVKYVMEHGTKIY
Excerpt: (§1) In order to test the cleavage specificity of the mutant endonucleases, two substrates were designed such that a limited number of sites related to the PvuII cognate sequence were present. A 1042 bp DNA substrate, corresponding to bases 317-1359 of the pUC19 sequence (GenBank #L09137), was amplified from pUC19. This substrate contains a unique PvuII site 631 bp from one end. A second, 1270 bp DNA substrate was amplified from the region corresponding to bases 6010-7280 of pTYB1 (New England Biolabs, Beverly, Mass.). This substrate contains a unique MfeI site 1022 bp from one end, and a unique PmlI site 810 bp from the same end. These substrates were used to determine the substrate specificity of PvuII (K93R) and its variants K93R/R105H, K93R/V50A and E18K/K93R/R105H. PvuII restriction digestion was assayed in NEB buffer 2 at 37° C. for 1.5 hour (New England Biolabs, Inc., Beverly, Mass.). […] The amount of protein required to cleave the MfeI/PmlI substrate at the MfeI site is >10 μg for the K93R mutant, 0.1 μg for K93R/105H, for 0.1 μg K93R/V50A, and 0.03 μg for K93R/R105H/E18K. The amount of protein required to cleave the MfeI/PmlI substrate at the PmlI site is >10 μg for the K93R mutant, 3 μg for K93R/105H, 3 μg for K93R/V50A, and 3 μg for K93R/R105H/E18K. Cleavage of the MfeI or PmlI sites by the wild-type PvuII endonuclease was not detectible (data not shown). It is clear that, compared to K93R, these K93R variants show an increase in specific cleavage activity at CAATTG and […], while maintaining similar levels of cleavage activity at CAGCTG.

PvuII K93R = biological target: T9, PvuII K93R (UniProt P23657 P23657:1-157, K93R); assay: cleavage_in_vitro; NEB buffer 2, 37 C, 1.5 h; conditions: tags: His-tag; chain copies: 2 inferred
T9 sequence: T8 sequence with A50V
Excerpt: as §1

PvuII E18K/K93R/R105H = biological target: T10, PvuII E18K/K93R/R105H (UniProt P23657 P23657:1-157, E18K/K93R/R105H); assay: cleavage_in_vitro; NEB buffer 2, 37 C, 1.5 h; conditions: tags: His-tag; chain copies: 2 inferred
T10 sequence: T8 sequence with E18K, A50V, R105H
Excerpt: as §1

PvuII K93R/R105H = biological target: T11, PvuII K93R/R105H (UniProt P23657 P23657:1-157, K93R/R105H); assay: cleavage_in_vitro; NEB buffer 2, 37 C, 1.5 h; conditions: tags: His-tag; chain copies: 2 inferred
T11 sequence: T8 sequence with A50V, R105H
Excerpt: as §1

Molecule: GTACCCGGGGAT (double strand) [pUC19/pZZ1 CCCGGG site]
- activity [1]: 4 % of wt

Molecule: lambda DNA (8 BsoBI sites)
- activity (BsoBI D246E D246E): < 0.001 % of wt
- activity (BsoBI D246Q D246Q): < 0.001 % of wt
- activity (BsoBI D246N D246N): < 0.001 % of wt

B1: pUC19/pZZ1 CCCGGG site (dsDNA)
DNA 1: GTACCCGGGGAT
DNA 2: ATCCCCGGGTAC
- activity (BsoBI pseudorevertant 8d): 5 % of wt
- activity [2]: 4 % of wt
- activity [3]: 10 % of wt
- activity [4]: 100 % of wt

B2: pUC19 1042 bp PCR fragment, unique PvuII site (dsDNA)
DNA 1: CAGCTG
DNA 2: CAGCTG
- activity (PvuII K93R/V50A): 0.01 ug protein required to cleave
- activity (PvuII K93R): 0.03 ug protein required to cleave
- activity (PvuII E18K/K93R/R105H): 0.03 ug protein required to cleave
- activity (PvuII K93R/R105H): 0.01 ug protein required to cleave

B3: pTYB1 1270 bp PCR fragment, MfeI site (dsDNA)
DNA 1: CAATTG
DNA 2: CAATTG
- activity (PvuII K93R/V50A): 0.1 ug protein required to cleave
- activity (PvuII E18K/K93R/R105H): 0.03 ug protein required to cleave
- activity (PvuII K93R/R105H): 0.1 ug protein required to cleave

Reference: patent US20050003420, “Recycled mutagenesis of restriction endonuclease toward enhanced catalytic activity” (published 2005)
